Reference: patent publication US20210008109A1, “METHODS OF TREATING HEMATOLOGICAL DISORDERS, SOLID TUMORS, OR INFECTIOUS DISEASES USING NATURAL KILLER CELLS” (CELGENE CORPORATION, priority 2014, published 2021)

System: Daudi cells
Test: Antibody-dependent cellular cytotoxicity (ADCC) of PiNK cells with rituximab, PKH26/TO-PRO-3 FACS
Format: cell-based
Settings: Daudi cells pre-incubated 1 h with rituximab, compared to human IgG isotype control; E:T 50:1, 20:1, 10:1 and 2.5:1; 4 h at 37° C.
Experimental: The experiments presented herein utilize an anti-CD20 antibody, rituximab, and Daudi cells (Cat #: CCL-213, ATCC), which are high expressers of CD20. Daudi cells were harvested and labeled with PKH26 (Cat #: PKH26GL-1KT, Sigma-Aldrich) (Ferlazzo, G., et al., J Immunol, 172: 1455-1462 (2004); Lehmann, D., et al., Stem Cells Dev, 21: 2926-2938 (2012)), whose lipophilic aliphatic residue inserts into cell plasma membrane. The cells were washed and incubated with rituximab (and human IgG as an isotype control) at different concentrations as indicated in FIG. 1 for 1 h at room temperature. After washing three times, 10^4 target cells were placed in 96-well U-bottom tissue culture plates and incubated with cultured NK cells at various effector-target (E:T) ratios (50:1, 20:1, 10:1 and 2.5:1) in 200 μl RPMI 1640 supplemented with 10% FBS. The Cultures were incubated for 4 h at 37° C. in 5% CO2. After incubation, cells were harvested and TO-PRO-3 (Catalog #T3605, Invitrogen), a membrane-impermeable DNA stain, was added to cultures to 0.25 μM final concentration followed by FACS analysis using BD FACSCanto II. Cytotoxicity (“% cytotoxicity” in FIG. 1) is expressed as percentage of dead cells (PKH26^+TO-PRO-3^+) within the total PKH26^+ target tumor cells, subtracted by spontaneous cell death.

## rituximab
  % cytotoxicity of PiNK cells (dead PKH26+TO-PRO-3+ cells within total PKH26+ target cells, minus spontaneous cell death): increases the cytotoxicity
